Blank lines part the entries; values can stand above or below the binder they belong to.
Target: T1, human IL-2 receptor (IL-2Rα/IL-2Rβ/γc) (human, UniProt P01589 22-272; P14784 27-551; P31785 23-369)
T1 sequence 1: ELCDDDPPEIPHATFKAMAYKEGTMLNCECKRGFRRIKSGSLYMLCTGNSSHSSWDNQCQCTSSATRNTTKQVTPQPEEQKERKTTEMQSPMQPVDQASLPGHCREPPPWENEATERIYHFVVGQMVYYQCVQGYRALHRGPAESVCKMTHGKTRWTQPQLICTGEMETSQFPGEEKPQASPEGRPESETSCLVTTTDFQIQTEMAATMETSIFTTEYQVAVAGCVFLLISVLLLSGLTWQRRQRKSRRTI
T1 sequence 2: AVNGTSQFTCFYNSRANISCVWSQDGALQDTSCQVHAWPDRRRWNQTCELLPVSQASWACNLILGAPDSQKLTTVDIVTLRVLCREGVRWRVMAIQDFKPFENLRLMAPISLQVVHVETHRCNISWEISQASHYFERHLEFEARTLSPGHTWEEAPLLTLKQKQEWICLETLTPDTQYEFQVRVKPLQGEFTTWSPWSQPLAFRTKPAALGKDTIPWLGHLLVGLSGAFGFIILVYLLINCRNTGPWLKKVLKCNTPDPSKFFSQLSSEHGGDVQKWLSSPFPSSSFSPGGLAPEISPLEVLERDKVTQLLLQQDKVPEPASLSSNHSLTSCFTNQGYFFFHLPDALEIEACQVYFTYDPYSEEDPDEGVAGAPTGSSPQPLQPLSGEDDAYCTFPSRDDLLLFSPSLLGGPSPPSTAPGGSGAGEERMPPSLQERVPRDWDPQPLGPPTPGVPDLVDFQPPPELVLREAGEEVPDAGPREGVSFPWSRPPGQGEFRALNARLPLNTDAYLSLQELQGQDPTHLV
T1 sequence 3: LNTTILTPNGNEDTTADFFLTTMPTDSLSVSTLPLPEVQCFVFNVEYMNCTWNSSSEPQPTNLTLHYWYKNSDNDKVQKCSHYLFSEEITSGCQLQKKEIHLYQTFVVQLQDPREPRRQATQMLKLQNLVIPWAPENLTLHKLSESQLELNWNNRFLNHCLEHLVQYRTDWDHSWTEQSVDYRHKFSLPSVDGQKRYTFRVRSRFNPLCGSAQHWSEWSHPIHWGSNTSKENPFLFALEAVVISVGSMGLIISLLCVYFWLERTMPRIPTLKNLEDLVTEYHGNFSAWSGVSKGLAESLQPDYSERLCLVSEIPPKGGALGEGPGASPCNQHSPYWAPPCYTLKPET
Test: cell-based or functional assay

- EC50 (nM) pSTAT5, NK, human PBMCs: 0.057 nM
- EC50 (nM) pSTAT5, Treg, human PBMCs: 0.488 pM
- Fold Max signal (% pSTAT5+) Treg/NK: 7 fold
- Max signal (% pSTAT5+), NK: 13 % pSTAT5+
- Max signal (% pSTAT5+), Treg: 84 % pSTAT5+
- fold EC50 NK/Treg: 117 fold
B1: DC00053 (other)
chain 1: QVQLVESGGGLVQPGGSLRLSCATSGFTFRNNFMSWVRQAPGKGLEWVSTISYGGESTTYAESVKGRFTISRDNAKNTLYLQMNNLKPEDTAVYYCAKATSYDSIRSGSRGQGTQVTVSSGGGGSGGGGSGGGGSEVQLVESGGGLVQTGGSLRLSCAASGGTFSRDAMAWFRQVPGKEREFVALISWSGATTNYADSVKGRFAISRDNGKNTVYLQMNRLKPADTAIYYCAADRRPMGSRSYFEPTEYDDWGQGTQVTVSSGGGGSGGGGSGGGGSDKTHTCPPCPAPEAAGGPSVFLFPPKPKDTLMISRTPEVTCVVVDVSHEDPEVKFNWYVDGVEVHNAKTKPREEQYNSTYRVVSVLTVLHQDWLNGKEYKCKVSNKALGAPIEKTISKAKGQPREPQVYTLPPSRDELTKNQVSLTCLVKGFYPSDIAVEWESNGQPENNYKTTPPVLDSDGSFLLYSKLTVDKSRWQQGNVFSCSVMHEALHNHYTQKSLSLSPGK
chain 2: EVQLVESGGGLVQTGGSLRLSCAASGGTFSRDAMAWFRQVPGKEREFVALISWSGATTNYADSVKGRFAISRDNGKNTVYLQMNRLKPADTAIYYCAADRRPMGSRSYFEPTEYDDWGQGTQVTVSSGGGGSGGGGSGGGGSQVQLVESGGGLVQPGGSLRLSCATSGFTFRNNFMSWVRQAPGKGLEWVSTISYGGESTTYAESVKGRFTISRDNAKNTLYLQMNNLKPEDTAVYYCAKATSYDSIRSGSRGQGTQVTVSSGGGGSGGGGSGGGGSQVQLVESGGGLVQAGGSLTLSCAAPGRTFGTDVVGWFRQAPGKEREFVASISRSGDGIYYDDSVKGRFTISRNNAWNTVNLQMNSLKVEDTAVYYCAAGDGWSTYDYWGQGTQVTVSSGGGGSGGGGSGGGGSDKTHTCPPCPAPEAAGGPSVFLFPPKPKDTLMISRTPEVTCVVVDVSHEDPEVKFNWYVDGVEVHNAKTKPREEQYNSTYRVVSVLTVLHQDWLNGKEYKCKVSNKALGAPIEKTISKAKGQPREPQVYTLPPSRDELTKNQVSLTCLVKGFYPSDIAVEWESNGQPENNYKTTPPVLDSDGSFFLYSRLTVDKSRWQQGNVFSCSVMHEALHNHYTQKSLSLSPGK

- EC50 (nM) pSTAT5, NK, human PBMCs: 0.889 nM
- EC50 (nM) pSTAT5, Treg, human PBMCs: < 0.1 pM
- Fold Max signal (% pSTAT5+) Treg/NK: 3 fold
- Max signal (% pSTAT5+), NK: 34 % pSTAT5+
- Max signal (% pSTAT5+), Treg: 97 % pSTAT5+
- fold EC50 NK/Treg: > 8890 fold
B2: DC00055 (other)
chain 1: B1 chain 1
chain 2: QVQLVESGGGLVQPGGSLRLSCATSGFTFRNNFMSWVRQAPGKGLEWVSTISYGGESTTYAESVKGRFTISRDNAKNTLYLQMNNLKPEDTAVYYCAKATSYDSIRSGSRGQGTQVTVSSGGGGSGGGGSGGGGSQVQLVESGGGLVQAGGSLTLSCAAPGRTFGTDVVGWFRQAPGKEREFVASISRSGDGIYYDDSVKGRFTISRNNAWNTVNLQMNSLKVEDTAVYYCAAGDGWSTYDYWGQGTQVTVSSGGGGSGGGGSGGGGSEVQLVESGGGLVQTGGSLRLSCAASGGTFSRDAMAWFRQVPGKEREFVALISWSGATTNYADSVKGRFAISRDNGKNTVYLQMNRLKPADTAIYYCAADRRPMGSRSYFEPTEYDDWGQGTQVTVSSGGGGSGGGGSGGGGSDKTHTCPPCPAPEAAGGPSVFLFPPKPKDTLMISRTPEVTCVVVDVSHEDPEVKFNWYVDGVEVHNAKTKPREEQYNSTYRVVSVLTVLHQDWLNGKEYKCKVSNKALGAPIEKTISKAKGQPREPQVYTLPPSRDELTKNQVSLTCLVKGFYPSDIAVEWESNGQPENNYKTTPPVLDSDGSFFLYSRLTVDKSRWQQGNVFSCSVMHEALHNHYTQKSLSLSPGK

Source: patent US20240409645A1 (DUALYX, published 2024)
